Data as given in the supplement of paper PMC7125110.
± gives the standard error. For some assays here: This sample holds only a part of the variants without activity.

B1: glmS ribozyme (parent)
chain: AUAAAAGCGCCAGAACUACAGAAAUGUAGUUGACGAGGAGGAGGUUUAUCGAAUUUUCGGCGGAUGCCUCCAAA

Legend:
Conditions in all cases: with glucosamine-6-phosphate
glucosamine-6-phosphate [1] = variants of: B1; assay: kcat; higher = faster cleavage; RNA array
Procedure, shortened: (§1)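 Barcoded ribozyme variants on sequenced MiSeq chips were transcribed in situ by E. coli RNA polymerase and followed at 37 °C through a hybridised Cy3 probe. Glucosamine-6-phosphate at 40 μM to 10 mM in HEPES/KCl/Mg(OAc)2 buffer was flowed in, and tiles were imaged over ~14 h. Signals were normalised to baseline and to non-cleaving reference variants, and per-tile medians were fit to one- or two-exponential decays to give kobs. Weighted Michaelis–Menten fits across concentrations gave kcat and KM.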

glucosamine-6-phosphate [2] = variants of: B1; assay: KM; higher = weaker cofactor use; RNA array
Procedure, shortened: as §1

glucosamine-6-phosphate [3] = variants of: B1; assay: self-cleavage kobs at 640 uM GlcN6P; higher = faster cleavage; RNA array
Procedure, shortened: as §1

glucosamine-6-phosphate [4] = variants of: B1; assay: self-cleavage kobs at 2500 uM GlcN6P; higher = faster cleavage; RNA array
Procedure, shortened: as §1

glucosamine-6-phosphate [5] = variants of: B1; assay: self-cleavage kobs at 10000 uM GlcN6P; higher = faster cleavage; RNA array
Procedure, shortened: as §1

glucosamine-6-phosphate [6] = variants of: B1; assay: self-cleavage kobs at 40 uM GlcN6P; higher = faster cleavage; RNA array
Procedure, shortened: as §1

glucosamine-6-phosphate [7] = variants of: B1; assay: self-cleavage kobs at 160 uM GlcN6P; higher = faster cleavage; RNA array
Procedure, shortened: as §1

Row | Variant | kcat (glucosamine-6-phosphate [1]) | KM (glucosamine-6-phosphate [2]) | self-cleavage kobs at 640 uM GlcN6P (glucosamine-6-phosphate [3]) | self-cleavage kobs at 2500 uM GlcN6P (glucosamine-6-phosphate [4]) | self-cleavage kobs at 10000 uM GlcN6P (glucosamine-6-phosphate [5]) | self-cleavage kobs at 40 uM GlcN6P (glucosamine-6-phosphate [6]) | self-cleavage kobs at 160 uM GlcN6P (glucosamine-6-phosphate [7])
1 | A48U U54G C70U | 0.000549 ± 9.5e-05 s⁻¹ | 1760 ± 550 µM | 0.000139 ± 2.9e-05 s⁻¹ | 0.000369 ± 9.6e-05 s⁻¹ | 0.000445 ± 0.00012 s⁻¹ |  | 
2 | G37C A52G | < 1e-05 s⁻¹ |  |  |  |  | < 1e-05 s⁻¹ | 
3 | U54C A64U | 7.19e-05 ± 1e-05 s⁻¹ |  |  | 5.96e-05 ± 1.3e-05 s⁻¹ | 6.16e-05 ± 1.3e-05 s⁻¹ |  | 
4 | U31C C50A | < 1e-05 s⁻¹ |  |  |  |  | < 1e-05 s⁻¹ | 
5 | G13C G66A | 6.45e-05 ± 6.3e-06 s⁻¹ | 1630 ± 600 µM |  | 4.1e-05 ± 1.2e-05 s⁻¹ | 5.46e-05 ± 1.2e-05 s⁻¹ |  | 
6 | C16A U30C | 2.39e-05 ± 3.2e-06 s⁻¹ |  |  | 2.62e-05 ± 9e-06 s⁻¹ | 2.12e-05 ± 8.1e-06 s⁻¹ |  | 
7 | A39U U45G | 0.00909 ± 0.0007 s⁻¹ | 2650 ± 300 µM | 0.00165 ± 0.00028 s⁻¹ | 0.00481 ± 0.00079 s⁻¹ | 0.00711 ± 0.00075 s⁻¹ | 0.000146 ± 2e-05 s⁻¹ | 0.000471 ± 8.8e-05 s⁻¹
8 | U56G U65C | 0.000622 ± 6.2e-05 s⁻¹ | 6800 ± 1000 µM |  | 0.000169 ± 3.3e-05 s⁻¹ | 0.000366 ± 0.00011 s⁻¹ |  | 
9 | U30C A39U | 0.000228 ± 2.1e-05 s⁻¹ | 1730 ± 380 µM | 6.71e-05 ± 1e-05 s⁻¹ | 0.000123 ± 1.7e-05 s⁻¹ | 0.000203 ± 2.2e-05 s⁻¹ |  | 
10 | U54C U55C | 0.014 ± 0.0045 s⁻¹ | 2720 ± 1100 µM | 0.00279 ± 0.00037 s⁻¹ | 0.00663 ± 0.0011 s⁻¹ | 0.0111 ± 0.0019 s⁻¹ | 0.000294 ± 4.1e-05 s⁻¹ | 0.000636 ± 8.9e-05 s⁻¹
11 | A6U A15G | 0.000987 ± 0.00028 s⁻¹ |  | 4.1e-05 ± 1.2e-05 s⁻¹ | 0.0002 ± 3.8e-05 s⁻¹ | 0.000441 ± 5.1e-05 s⁻¹ |  | 
12 | C58U C70G | 1.93e-05 ± 3.5e-06 s⁻¹ |  | 2.38e-05 ± 9.2e-06 s⁻¹ | 2.22e-05 ± 1e-05 s⁻¹ |  |  | 
13 | A52U U57A | 0.00351 ± 0.00067 s⁻¹ | 5900 ± 1500 µM | 0.000344 ± 6.8e-05 s⁻¹ | 0.00123 ± 0.00025 s⁻¹ | 0.00213 ± 0.00033 s⁻¹ |  | 9.27e-05 ± 1.9e-05 s⁻¹
14 | U30G C58A | 0.000335 ± 5.6e-05 s⁻¹ | 2550 ± 710 µM | 7.21e-05 ± 8.3e-06 s⁻¹ | 0.000154 ± 1.8e-05 s⁻¹ | 0.000293 ± 5e-05 s⁻¹ |  | 
15 | A36C U55A | < 1e-05 s⁻¹ |  |  |  |  |  | < 1e-05 s⁻¹
16 | U30A U31C | 0.00588 ± 0.00051 s⁻¹ | 4300 ± 500 µM | 0.000754 ± 0.00011 s⁻¹ | 0.00197 ± 0.00041 s⁻¹ | 0.00423 ± 0.0006 s⁻¹ | 5.91e-05 ± 1.1e-05 s⁻¹ | 0.000203 ± 4.9e-05 s⁻¹
17 | G32U U65G | 0.00128 ± 0.00061 s⁻¹ |  |  | 2.49e-05 ± 1.1e-05 s⁻¹ | 9.34e-05 ± 1.3e-05 s⁻¹ | < 1e-05 s⁻¹ | 

Row | Variant | kcat (glucosamine-6-phosphate [1]) | KM (glucosamine-6-phosphate [2]) | self-cleavage kobs at 640 uM GlcN6P (glucosamine-6-phosphate [3]) | self-cleavage kobs at 2500 uM GlcN6P (glucosamine-6-phosphate [4]) | self-cleavage kobs at 10000 uM GlcN6P (glucosamine-6-phosphate [5]) | self-cleavage kobs at 40 uM GlcN6P (glucosamine-6-phosphate [6]) | self-cleavage kobs at 160 uM GlcN6P (glucosamine-6-phosphate [7])
18 | A14C U30A | 0.00104 ± 0.00011 s⁻¹ | 2710 ± 480 µM | 0.000182 ± 3.9e-05 s⁻¹ | 0.000568 ± 0.00017 s⁻¹ | 0.000813 ± 0.00013 s⁻¹ |  | 6.84e-05 ± 2e-05 s⁻¹
19 | G66A C67G | 0.00418 ± 0.0021 s⁻¹ |  | 0.000703 ± 0.0001 s⁻¹ | 0.00281 ± 0.00066 s⁻¹ | 0.00412 ± 0.00067 s⁻¹ | 0.000102 ± 1.4e-05 s⁻¹ | 0.000414 ± 5.4e-05 s⁻¹
20 | A12C G66U C70U | 0.00136 ± 0.00036 s⁻¹ | 1190 ± 570 µM | 0.000496 ± 0.00012 s⁻¹ | 0.00128 ± 0.00028 s⁻¹ | 0.000992 ± 0.00028 s⁻¹ | 3.71e-05 ± 1.5e-05 s⁻¹ | 
21 | C11U G32A | 0.000453 ± 3.3e-05 s⁻¹ | 1520 ± 290 µM | 0.00014 ± 3.1e-05 s⁻¹ | 0.000239 ± 5.9e-05 s⁻¹ | 0.000404 ± 4.4e-05 s⁻¹ |  | 5.04e-05 ± 2.1e-05 s⁻¹
22 | U65C C67U | 0.000111 ± 9.1e-06 s⁻¹ | 2040 ± 650 µM |  | 7.62e-05 ± 2.6e-05 s⁻¹ | 9.15e-05 ± 1e-05 s⁻¹ |  | 
23 | G32C | 0.000139 ± 1.7e-06 s⁻¹ | 3460 ± 110 µM | 2.26e-05 ± 1.4e-06 s⁻¹ | 5.77e-05 ± 1.3e-06 s⁻¹ | 0.000103 ± 1.4e-06 s⁻¹ |  | 
24 | C16U U30C | 7.72e-05 ± 8.6e-06 s⁻¹ |  | 6.63e-05 ± 2.2e-05 s⁻¹ | 5.88e-05 ± 8.5e-06 s⁻¹ | 8.45e-05 ± 9.1e-06 s⁻¹ | < 1e-05 s⁻¹ | 3.52e-05 ± 1.7e-05 s⁻¹
25 | G41A A53U | 0.000693 ± 8.4e-05 s⁻¹ | 562 ± 120 µM | 0.000358 ± 5.8e-05 s⁻¹ | 0.00063 ± 0.00014 s⁻¹ | 0.000656 ± 0.0001 s⁻¹ | 5.42e-05 ± 9e-06 s⁻¹ | 0.00012 ± 3.1e-05 s⁻¹
26 | U54C G63U | < 1e-05 s⁻¹ |  | < 1e-05 s⁻¹ |  |  |  | 
27 | C50U U56G | 1.91e-05 ± 1.3e-06 s⁻¹ | 829 ± 360 µM |  |  |  |  | < 1e-05 s⁻¹
28 | C50G U65G | 5.8e-05 ± 2.4e-05 s⁻¹ |  |  | 7.28e-05 ± 2.4e-05 s⁻¹ |  |  | 4.97e-05 ± 1.7e-05 s⁻¹
29 | U31A U69G | 5.26e-05 ± 7e-06 s⁻¹ |  | 6.47e-05 ± 1.5e-05 s⁻¹ | 5.62e-05 ± 1.2e-05 s⁻¹ | 4.26e-05 ± 9.9e-06 s⁻¹ |  | 4.7e-05 ± 1.3e-05 s⁻¹
30 | U46C A48U | 8.27e-05 ± 1.4e-05 s⁻¹ |  |  | 6.44e-05 ± 1.3e-05 s⁻¹ | 6.9e-05 ± 9e-06 s⁻¹ |  | 
31 | U55G G60U G63A G66C | 1.16e-05 ± 1e-06 s⁻¹ |  |  | < 1e-05 s⁻¹ |  |  | 
32 | U30G U46A G66C | 0.000292 ± 0.00014 s⁻¹ |  | 6.55e-05 ± 2.5e-05 s⁻¹ | 0.00038 ± 8.8e-05 s⁻¹ | 0.000218 ± 5.4e-05 s⁻¹ |  | 
33 | U56A G66C | 0.000237 ± 5.7e-05 s⁻¹ |  | 0.000107 ± 1.6e-05 s⁻¹ | 0.000132 ± 3.9e-05 s⁻¹ | 0.000238 ± 4.6e-05 s⁻¹ |  | 
34 | C61U C67A | 1.1e-05 ± 1.5e-06 s⁻¹ |  |  |  |  |  | 
